We go through two substances from patent US6355481.

For this assay, the target named is HAP1-A (Huntingtin Associated Protein 1-A) (UniProt P54256). The assay is described as follows: cell-based or functional assay.
HAP1-A (Huntingtin Associated Protein 1-A), sequence (P54256 other isoform, or with tags, fused parts or gaps limits assumed): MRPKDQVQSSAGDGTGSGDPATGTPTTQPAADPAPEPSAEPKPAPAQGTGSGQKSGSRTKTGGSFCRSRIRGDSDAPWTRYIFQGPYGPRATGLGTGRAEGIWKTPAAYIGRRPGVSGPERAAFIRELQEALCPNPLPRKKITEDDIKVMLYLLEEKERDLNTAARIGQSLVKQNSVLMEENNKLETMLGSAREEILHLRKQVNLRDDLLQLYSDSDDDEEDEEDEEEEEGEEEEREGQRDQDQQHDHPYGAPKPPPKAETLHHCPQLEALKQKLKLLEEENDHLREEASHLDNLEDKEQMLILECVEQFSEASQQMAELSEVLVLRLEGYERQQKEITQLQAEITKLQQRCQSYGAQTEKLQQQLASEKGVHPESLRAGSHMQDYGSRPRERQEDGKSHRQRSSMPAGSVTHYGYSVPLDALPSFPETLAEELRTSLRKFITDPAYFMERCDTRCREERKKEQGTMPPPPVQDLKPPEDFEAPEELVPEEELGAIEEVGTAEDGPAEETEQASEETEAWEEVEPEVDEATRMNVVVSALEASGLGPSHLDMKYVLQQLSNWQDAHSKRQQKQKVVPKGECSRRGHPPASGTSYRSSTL

Take “N-terminal region of human huntingtin protein (amino acids 1-253) with 73 glutamines (HD-73Q) (from UniProt P42858 1-253)”: the percentage of HAP1-A and huntingtin double-transfected PC12 cells with elongated neurites stood at 15.2%. As to “N-terminal region of human huntingtin protein (amino acids 1-253) with 120 glutamines (HD-120Q) (from UniProt P42858 1-253)”, the percentage of HAP1-A and huntingtin double-transfected PC12 cells with elongated neurites came to 7.5%.
